Assay results as given in patent US20260042854A1, “ANTI-GLP-1R ANTIBODIES AND USES THEREOF” (SCIWIND BIOSCIENCES USA CO., LTD, priority 2022, published 2026).

How the values were obtained:
[1] = target: monkey GLP-1R (JN033215.1) on HEK293 cells (monkey); assay: cell-based or functional assay
[2] = target: hGLP-1R on the cell membrane (HEK293 cells overexpressing hGLP-1R) (human) (UniProt P43220); assay: cell-based or functional assay
Sequence of hGLP-1R on the cell membrane (HEK293 cells overexpressing hGLP-1R) (human) (P43220 24-463): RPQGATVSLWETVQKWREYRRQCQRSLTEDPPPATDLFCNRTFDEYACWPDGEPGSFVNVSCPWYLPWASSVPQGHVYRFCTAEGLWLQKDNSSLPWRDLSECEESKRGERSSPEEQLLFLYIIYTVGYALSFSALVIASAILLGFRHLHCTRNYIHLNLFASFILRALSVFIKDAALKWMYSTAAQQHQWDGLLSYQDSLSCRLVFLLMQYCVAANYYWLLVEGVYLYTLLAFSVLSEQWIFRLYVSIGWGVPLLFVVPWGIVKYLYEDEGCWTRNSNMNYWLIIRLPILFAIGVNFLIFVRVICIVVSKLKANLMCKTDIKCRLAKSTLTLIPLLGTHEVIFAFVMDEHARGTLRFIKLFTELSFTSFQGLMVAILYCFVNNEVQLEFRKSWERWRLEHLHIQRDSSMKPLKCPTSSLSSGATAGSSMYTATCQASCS

B1: P16891 (antibody, human IgG4 S228P, kappa)
heavy: QVQLVQSGAEMKKPGASVKVSCKTSGYRFSTYVISWVRQTPGQGLEWMGWISPYTGDIDYAQKFQGRVTITADESTSTAYMELSRLRSDDTAVYYCAREREGYNFPGMDVWGQGTTVTVSSASTKGPSVFPLAPCSRSTSESTAALGCLVKDYFPEPVTVSWNSGALTSGVHTFPAVLQSSGLYSLSSVVTVPSSSLGTKTYTCNVDHKPSNTKVDKRVESKYGPPCPPCPAPEFLGGPSVFLFPPKPKDTLYITREPEVTCVVVDVSQEDPEVQFNWYVDGVEVHNAKTKPREEQFNSTYRVVSVLTVLHQDWLNGKEYKCKVSNKGLPSSIEKTISKAKGQPREPQVYTLPPSQEEMTKNQVSLTCLVKGFYPSDIAVEWESNGQPENNYKTTPPVLDSDGSFFLYSRLTVDKSRWQEGNVFSCSVMHEALHNHYTQKSLSLSLGK
light: DIQLTQSPSFLSASVGDRVTITCRASQGISSYLAWYQQKPGRAPKLLIYSASTLQRGVPSRFSGSGSGTDFTLTISSLQPEDYATYYCQQAESFPPSFGPGTKVDIKRTVAAPSVFIFPPSDEQLKSGTASVVCLLNNFYPREAKVQWKVDNALQSGNSQESVTEQDSKDSTYSLSSTLTLSKADYEKHKVYACEVTHQGLSSPVTKSFNRGEC
Work on B1 yielded an IC50, inhibition of GLP-1 (2.5 ng/mL) activity in monkey GLP-1R-CRE-Luciferase-HEK293 reporter gene assay [1] of 13.8 nM and an IC50, inhibition of GLP-1 (2.5 ng/ml) activity in hGLP-1R-CRE-Luciferase-HEK293 reporter gene assay [2] of 17.2 nM.
